The values below come from article PMC8133395 (Cell reports, 2021).

This test deals with T1, EBOV sGP (Mayinga) (Zaire ebolavirus, Mayinga, GenBank …, UniProt P60170).
T1 construct: source: FreeStyle-293-F, transiently transfected, purified (Strep-Tactin, SEC)
As to the kind of experiment: ELISA. The settings on record: both partners purified. In general terms: ELISA stands for enzyme-linked immunosorbent assay.

T1 sequence (P60170 33-314): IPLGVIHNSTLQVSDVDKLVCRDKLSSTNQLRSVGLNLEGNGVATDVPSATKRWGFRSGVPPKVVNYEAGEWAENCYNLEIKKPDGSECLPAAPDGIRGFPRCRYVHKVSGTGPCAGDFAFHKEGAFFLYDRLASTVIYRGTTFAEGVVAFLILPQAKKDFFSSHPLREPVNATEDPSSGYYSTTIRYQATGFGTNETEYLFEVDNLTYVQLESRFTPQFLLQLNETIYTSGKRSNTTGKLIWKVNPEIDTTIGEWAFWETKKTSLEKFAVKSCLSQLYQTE

B1: EBOV-548 (antibody, V domains shown)
VH: QVQVEESGGGVVQPGGSLRLSCAASGFMFSNYGMHWVRQAPGKGLEWMAFIRYDDSKKFYADSVKGRFTISRDNSKNTLYLQMNSLRAEDTALYYCAKELLQVYTSAWGEGHSYYYALDVWGLGTAVTVSS
VL: DIQMTQSPSSVSASVGDRVTITCRASQDISNWLAWYQQKPGKAPELLIYTASILQSGVSSRFSGSGSGTDFTLTISSLQPEDSATYYCQQGKSFPYTFGQGTKLEIK
On to B1, for which the binding result was “binds”.
